# The Human Domainome abundance scans (Beltran et al. 2025)
# ± gives the uncertainty stated by the source.
# B1: E3 ubiquitin-protein ligase NEDD4, residues 836 to 881; numbered along this chain, P46934 (parent)
# chain: EIEQGFLPKGWEVRHAPNGRPFFIDHNTKTTTWEDPRLKIPAHLRG
# B2: POU domain, class 2, transcription factor 1, residues 285 to 354; numbered along this chain, P14859 (parent)
# chain: LEELEQFAKTFKQRRIKLGFTQGDVGLAMGKLYGNDFSQTTISRFEALNLSFKNMCKLKPLLEKWLNDAE
# Variants of: B1
# Assay: abundance fitness (aPCA) (normalised: wild type 0, dead -1); higher = more abundant; growth selection in yeast, the domain comes from the species named
# Settings: Homo sapiens
row,Variant,abundance fitness
1,R37T,-0.256 ± 0.055
2,R37S,-0.472 ± 0.049
3,R37Q,-0.665 ± 0.13
4,R37K,-0.758 ± 0.11
5,R37M,-0.364 ± 0.075
6,R37G,-0.586 ± 0.042
7,R37C,-0.611 ± 0.064
8,E34W,-0.306 ± 0.049
9,E34Y,-0.272 ± 0.077
10,I40W,-0.055 ± 0.045
11,I40R,-0.018 ± 0.058
12,I40H,-0.17 ± 0.084
13,I40E,-0.233 ± 0.1
14,I40A,0.002 ± 0.043
15,I40T,0.04 ± 0.072
16,I40D,-0.193 ± 0.1
17,I40M,-0.026 ± 0.069
18,I40V,-0.007 ± 0.054
19,I40Q,0.085 ± 0.072
20,I40G,0.028 ± 0.036
21,I40K,0.095 ± 0.07

row,Variant,abundance fitness
1,I40Y,-0.27 ± 0.063
2,I40S,0.009 ± 0.056
3,I40L,-0.042 ± 0.053
4,I40C,-0.343 ± 0.11
5,I40N,-0.154 ± 0.11
6,I40F,-0.239 ± 0.062
7,I40P,-0.335 ± 0.15
8,P41V,-0.141 ± 0.042
9,P41L,-0.469 ± 0.05
10,P41A,-0.078 ± 0.033
11,P41R,-0.117 ± 0.041
12,P41T,-0.158 ± 0.078
13,P41I,0.029 ± 0.082
14,P41N,0.005 ± 0.049
15,P41G,-0.423 ± 0.047
16,P41Y,-0.607 ± 0.14
17,P41K,-0.08 ± 0.066
18,P41Q,-0.32 ± 0.087
19,P41F,-0.57 ± 0.15
20,P41D,-0.16 ± 0.065
21,P41M,-0.353 ± 0.062

row,Variant,abundance fitness
1,P41S,-0.139 ± 0.064
2,P41E,-0.167 ± 0.069
3,P41W,-0.49 ± 0.084
4,P41H,0.051 ± 0.088
5,H43Q,0.007 ± 0.048
6,H43D,-0.177 ± 0.087
7,H43Y,-0.041 ± 0.1
8,H43K,-0.04 ± 0.054
9,H43N,-0.084 ± 0.063
10,H43G,-0.078 ± 0.046
11,H43V,-0.052 ± 0.047
12,H43E,0.105 ± 0.058
13,H43P,0.094 ± 0.064
14,H43C,-0.22 ± 0.053
15,H43F,-0.232 ± 0.055
16,H43A,-0.105 ± 0.054
17,H43W,-0.311 ± 0.075
18,H43R,-0.195 ± 0.037
19,H43S,0.019 ± 0.032
20,H43T,0.059 ± 0.059
21,H43I,-0.156 ± 0.04

row,Variant,abundance fitness
1,H43L,-0.107 ± 0.038
2,H43M,-0.251 ± 0.059
3,A42C,-0.135 ± 0.047
4,A42Q,0.02 ± 0.046
5,A42M,-0.181 ± 0.096
6,A42N,-0.015 ± 0.043
7,A42I,-0.398 ± 0.1
8,A42L,-0.147 ± 0.042
9,A42K,-0.092 ± 0.052
10,A42R,-0.273 ± 0.074
11,A42T,-0.22 ± 0.08
12,A42D,-0.111 ± 0.04
13,A42S,-0.092 ± 0.057
14,A42F,-0.223 ± 0.11
15,A42V,-0.128 ± 0.035
16,A42H,-0.086 ± 0.11
17,A42Y,-0.252 ± 0.085
18,A42W,-0.316 ± 0.13
19,A42G,-0.013 ± 0.04
20,A42P,-0.075 ± 0.074
21,A42E,0.027 ± 0.058

# Variants of: B2
# Assay: as above
# Settings: Homo sapiens
row,Variant,abundance fitness
1,LFELEQFAKTFKQRRIKLGFTQGDVGLAMGKLYGNDFSQTTISRFEALNLSFKNMCKLKPLLEKWLNDAE [E2F],-0.009 ± 0.036
2,LMELEQFAKTFKQRRIKLGFTQGDVGLAMGKLYGNDFSQTTISRFEALNLSFKNMCKLKPLLEKWLNDAE [E2M],-0.012 ± 0.026
3,LVELEQFAKTFKQRRIKLGFTQGDVGLAMGKLYGNDFSQTTISRFEALNLSFKNMCKLKPLLEKWLNDAE [E2V],-0.067 ± 0.045
4,LCELEQFAKTFKQRRIKLGFTQGDVGLAMGKLYGNDFSQTTISRFEALNLSFKNMCKLKPLLEKWLNDAE [E2C],-0.152 ± 0.051
5,LGELEQFAKTFKQRRIKLGFTQGDVGLAMGKLYGNDFSQTTISRFEALNLSFKNMCKLKPLLEKWLNDAE [E2G],-0.303 ± 0.1
6,LRELEQFAKTFKQRRIKLGFTQGDVGLAMGKLYGNDFSQTTISRFEALNLSFKNMCKLKPLLEKWLNDAE [E2R],-0.013 ± 0.03
7,LPELEQFAKTFKQRRIKLGFTQGDVGLAMGKLYGNDFSQTTISRFEALNLSFKNMCKLKPLLEKWLNDAE [E2P],-0.178 ± 0.039
8,LDELEQFAKTFKQRRIKLGFTQGDVGLAMGKLYGNDFSQTTISRFEALNLSFKNMCKLKPLLEKWLNDAE [E2D],-0.013 ± 0.17
9,LQELEQFAKTFKQRRIKLGFTQGDVGLAMGKLYGNDFSQTTISRFEALNLSFKNMCKLKPLLEKWLNDAE [E2Q],-0.043 ± 0.037
10,LIELEQFAKTFKQRRIKLGFTQGDVGLAMGKLYGNDFSQTTISRFEALNLSFKNMCKLKPLLEKWLNDAE [E2I],-0.029 ± 0.06
11,LTELEQFAKTFKQRRIKLGFTQGDVGLAMGKLYGNDFSQTTISRFEALNLSFKNMCKLKPLLEKWLNDAE [E2T],-0.158 ± 0.032
12,LHELEQFAKTFKQRRIKLGFTQGDVGLAMGKLYGNDFSQTTISRFEALNLSFKNMCKLKPLLEKWLNDAE [E2H],-0.175 ± 0.057
13,LSELEQFAKTFKQRRIKLGFTQGDVGLAMGKLYGNDFSQTTISRFEALNLSFKNMCKLKPLLEKWLNDAE [E2S],-0.057 ± 0.031
14,LNELEQFAKTFKQRRIKLGFTQGDVGLAMGKLYGNDFSQTTISRFEALNLSFKNMCKLKPLLEKWLNDAE [E2N],0.109 ± 0.072
15,LKELEQFAKTFKQRRIKLGFTQGDVGLAMGKLYGNDFSQTTISRFEALNLSFKNMCKLKPLLEKWLNDAE [E2K],0.053 ± 0.037
16,LYELEQFAKTFKQRRIKLGFTQGDVGLAMGKLYGNDFSQTTISRFEALNLSFKNMCKLKPLLEKWLNDAE [E2Y],-0.046 ± 0.057

row,Variant,abundance fitness
1,LWELEQFAKTFKQRRIKLGFTQGDVGLAMGKLYGNDFSQTTISRFEALNLSFKNMCKLKPLLEKWLNDAE [E2W],-0.043 ± 0.029
2,CEELEQFAKTFKQRRIKLGFTQGDVGLAMGKLYGNDFSQTTISRFEALNLSFKNMCKLKPLLEKWLNDAE [L1C],-0.065 ± 0.34
3,AEELEQFAKTFKQRRIKLGFTQGDVGLAMGKLYGNDFSQTTISRFEALNLSFKNMCKLKPLLEKWLNDAE [L1A],-0.201 ± 0.22
4,SEELEQFAKTFKQRRIKLGFTQGDVGLAMGKLYGNDFSQTTISRFEALNLSFKNMCKLKPLLEKWLNDAE [L1S],-0.055 ± 0.28
5,REELEQFAKTFKQRRIKLGFTQGDVGLAMGKLYGNDFSQTTISRFEALNLSFKNMCKLKPLLEKWLNDAE [L1R],0.142 ± 0.12
6,DEELEQFAKTFKQRRIKLGFTQGDVGLAMGKLYGNDFSQTTISRFEALNLSFKNMCKLKPLLEKWLNDAE [L1D],-0.145 ± 0.15
7,MEELEQFAKTFKQRRIKLGFTQGDVGLAMGKLYGNDFSQTTISRFEALNLSFKNMCKLKPLLEKWLNDAE [L1M],0.073 ± 0.06
8,KEELEQFAKTFKQRRIKLGFTQGDVGLAMGKLYGNDFSQTTISRFEALNLSFKNMCKLKPLLEKWLNDAE [L1K],0.001 ± 0.11
9,WEELEQFAKTFKQRRIKLGFTQGDVGLAMGKLYGNDFSQTTISRFEALNLSFKNMCKLKPLLEKWLNDAE [L1W],-0.02 ± 0.051
10,EEELEQFAKTFKQRRIKLGFTQGDVGLAMGKLYGNDFSQTTISRFEALNLSFKNMCKLKPLLEKWLNDAE [L1E],-0.124 ± 0.11
11,YEELEQFAKTFKQRRIKLGFTQGDVGLAMGKLYGNDFSQTTISRFEALNLSFKNMCKLKPLLEKWLNDAE [L1Y],0.13 ± 0.15
12,VEELEQFAKTFKQRRIKLGFTQGDVGLAMGKLYGNDFSQTTISRFEALNLSFKNMCKLKPLLEKWLNDAE [L1V],-0.026 ± 0.058
13,NEELEQFAKTFKQRRIKLGFTQGDVGLAMGKLYGNDFSQTTISRFEALNLSFKNMCKLKPLLEKWLNDAE [L1N],-0.074 ± 0.096
14,FEELEQFAKTFKQRRIKLGFTQGDVGLAMGKLYGNDFSQTTISRFEALNLSFKNMCKLKPLLEKWLNDAE [L1F],0.007 ± 0.044
15,IEELEQFAKTFKQRRIKLGFTQGDVGLAMGKLYGNDFSQTTISRFEALNLSFKNMCKLKPLLEKWLNDAE [L1I],-0.003 ± 0.17
